Measured values reported in PMC4742067 (PLoS ONE, 2016).
Values belong to the molecule of their own block, whether it stands above or below them.

Assays:
[1] = biological target: bradykinin B1 receptor (Homo sapiens) (UniProt P46663); assay: radioligand binding; conditions: cited from earlier work
[2] = biological target: T1, human B1R C-terminally tagged with FLAG (hB1R-FLAG) (human, UniProt P46663 1-353); assay: radioligand binding; competition of dilutions of a producer-cell lysate of known EGFP-S4-P1 concentration (GFP ELISA) with 1 nM [^3H]Lys-des-Arg^9-BK (bought radioligand) on intact HEK 293a cells expressing hB1R-FLAG; Ki by the Cheng-Prusoff correction; conditions: partners not purified
T1 construct: also called human B1R-FLAG; bradykinin B1 receptor; not shown: FLAG, C-terminal, kept
T1 sequence (looked up): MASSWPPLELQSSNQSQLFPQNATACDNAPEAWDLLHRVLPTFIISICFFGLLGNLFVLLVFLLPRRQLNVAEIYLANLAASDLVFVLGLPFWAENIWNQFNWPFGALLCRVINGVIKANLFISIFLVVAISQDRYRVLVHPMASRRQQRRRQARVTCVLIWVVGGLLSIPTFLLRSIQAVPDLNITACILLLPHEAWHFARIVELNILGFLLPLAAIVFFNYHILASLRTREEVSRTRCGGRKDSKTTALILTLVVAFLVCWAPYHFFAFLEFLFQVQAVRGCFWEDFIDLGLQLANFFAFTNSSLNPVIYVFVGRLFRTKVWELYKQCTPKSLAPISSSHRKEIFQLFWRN

[3] = biological target: T1, human B1R C-terminally tagged with FLAG …; assay: radioligand binding; competition of unlabeled pure peptides with 1 nM [^3H]Lys-des-Arg^9-BK on intact, adherent HEK 293a cells (24-well plates) transiently expressing hB1R-FLAG; one-site competition fit (series of Fig 2 and the Lys-des-Arg^9-BK curve of Fig 7); conditions: one partner purified

Molecule: Lys-des-Arg9-bradykinin (from UniProt P01042)
Kd [1]: 0.35 nM

B1: EGFP-S4-P1 (EGFP-(NG)15-Lys-des-Arg^9-BK) (ligand)
chain: NGNGNGNGNGNGNGNGNGNGNGNGNGNGNGKRPPGFSPF
notes: also called EGFP-(Asn-Gly)15-Lys-des-Arg^9-BK
IC50 [2]: 25.5 nM | Ki [2]: 6.6 nM

Other lines, results leading:

IC50 [3]: 75.1 nM
Molecule: NGNGNGNGNGKRPPGFSPF (also called (Asn-Gly)5-Lys-des-Arg^9-BK) [synthetic S3-P1]

IC50 [3]: 663 nM
Molecule: NGNGNGNGNGKRPPGFSPL [synthetic S3-P2]
